From a protein production outcome set (Wang et al. 2014)

Test: label from the status in PepcDB records

## MAIGMSELKKGLKIELGGVPYRIVEYQHVKPGKGAAFVRAKIKSFLDGKVIEKTFHAGDKCEEPNLVEKTMQYLYHDGDTYQFMDIESYEQIALNDSQVGEASKWMLDGMQVQVLLHNDKAISVDVPQVVALKIVETAPNFKGDTSSASKKPATLETGAVVQVPFHVLEGEIIKVNTETEEYLEKVK
  protein production: failed

## MPTYSAMANTDGGIVILGVRERKGQFEVAGIENPDKLRTELFNHLNNRQKVSVNLLRDEDVRAWPVEGKTLLVVEIPRARRQQRPVYLRGNPLGGHTYRRLHEGDRPLEHHHHHH
  protein production: failed

## MADLTHEFWDRLEDVRSGMLGIKGQGRLIPMSPQTDDDAPGAIWFITAKGTDLAKGVAAGPQPAQFVVSDDGEGLYADLDGTLERSTDREALDEFWSFVADAWFDGGQHDPDVCLLKFTPASGEISITEGGGARFLYEIAKAHLTDETPDMGEQATVTF
  protein production: not failed

## MRICLFLCLCLCMASPALAQVAVFPALSGKTDAQTLVVYSSLDEPLATPMIEGFQKANPDIAVHYEDMLTGEIYDRIVKETDAGKKTADFAFSSAMDLQVKLSNDGYAQRSDLAMSARWPAWANWRNTAYALTFEPAVFVYHKPSFTTEKPPATRAEFVDYLERHAKEVHGRIATYDIERSGVGFLFMSRDQEQFGDIWSVIKAMGAAGVKVYSTSSAILERVSDGRFVLGYNILGSYAADWASRHPDVGIVLPKDYTVVMSRIGLVPEAAANPELGRRYLEFFMSKEGQTIMARQLQIPAVSPEVAGENTANTMQAIHGAQLRPVPVSPGLMVYLDQVKRSR
  protein production: not failed

## MAYFHGTGSEPAWKQMELVALIGLAAVLLRGPIAAAWKTVASRSNERKRHQRDPAARVGKGAGSKINLAALQYANLKLALREHRCRRLPRLLVTGNDAAVSRLLPELEEAGWFDTCDALLLSSKTSNEGQPDTAWLKRLYKLRRRRPVDAVIVVTDGAADLPMPRRGTHPYSIRLARIIEILRYAAPVYVVDVAGMDPTVSSDAPIIVCALPNQADASAIEEALLLLRNQLARRGLDQLTQEDRYPYQARLSQRFDTRSKALAKWTAGLIAGQIAVRGIAFAPYPSGTSTKPEMPGSADLPHWRYLSEAARRQPGKRIGWHPMTVCVGFALVAVGLWFAGMLASGWFNSRDVYAAQQAVTEIGSARNPATRLHALLALQQQIERYEYRTQQHAPLLTRFGLNRDADVLAALWQPYVKASRELLVTPVQQNLEATLVDLGQLQTTTLDDKTSQWALSGRDDLKAYLMLAYPERTEADFLAGRLPHDWSTEARITPGEKQALAERLFKFYAQHLKANPDWKIEPRPELVAGARQTLLAVIGARSAQETLYRGILNGAGNKYPDLTLPSLTAGTDARGLLRSAAAVPGVFTRQAYEGYVADAIDAAATRRDVAADWVLTGSQVAAVTATKSADELRAALTEQYFAEYAAHWQDFMNSLQWESAATLPAAIDQLKLLADARQSPAIALMKSLAYQGGAGVQKTSLSDTLVNKAKDILGKKDDAPNSAKAAPAGPLDAAFGPVLRLAGQPGQAGQGGNNDLSLQRYLDRITALRLRLQQVSIGADADDQARQMAQAMFQGKSSDLADTQAYAQLVAASLGAEWAGMGETLFVRPVAQATQAIVLPAQASLNDVWQRFIMAEWNRIFAGRYPFANTTNDASLPELAQFLRPQGGTIQTFLATQLAGVLELQGDQWMPAAGARGITFDPEFLKTINILQRIGAHMLVQGDPQYRFELKPIATPGLTDTKLTIDGQKLHYYNQRETWNRMTWPASNLQDPGTLLQWQTEKAGTNKNYEYGGRFALLRMIGHGHIVPIDSATVQITWPAVPDTRGPLEESTDAQSGKAPYEIRFLMRSEAGQGVLELLPLRGLKLPQRVFLVGKGGAAVDVPSPAARNAKRGGV
  protein production: failed

## MNLKDLLAHRENLMDSAKRARSAITDDMDPADAAQAVENVKSIISEIESTDEAIAARRGVSDVTQKLKGLTITERGTENDSAASRSLGEHFVKAAGDRLKNQAAGAHIEYSVPEYQVKEDAHSSPKDLVEGWGTFYQRGIINQRRERLVAADLMGAATVTASTVKYIVEKANRIASGAPATVAEGTKKPYVKYADFDVVTESLSKVAALAKFTDEMIEDYDFVASWINNNLVYDLSVVEEKQLINGDGRGSNIKGLLNREGIQTHKSAKQADWFNDLFKAKNKVSQATNLEADGIMINPVNYEALRLTKDGNGQYIAGGPFQGQYGNGNILIDPPLWGIKTVVSNAVPAGTAIVGAFRQGATVLRKGGVRVDSANTNADDFENNLVTLRAEERLGLMVPLPAAFVKVTLEETTEEL
  protein production: not failed

## AWMHGHRFYVDERVIVPRSFIGELLDDGLQPYVEDPELVGSVLELCTGSGCLAILAALAFPNASVDAVDLSADALAVAKINRDDYGLDERIALHHGDLYAPLPQFKWIDSAQRYDVIITNPPYVNAESMAELPAEYRHEPEMALAGGADGMDIVRRIIGEARRWLKDDGVLVVEIGNERANVEAAFGGLELVWLPTSAGDDSVFLIHASD
  protein production: failed
